Results on two molecules are retold here after US20220064324A1 (US Dept. of Health and Human Services, published 2022).

The target of experiment [1] is T1, human mesothelin Fragment 1 (residues 296-390) (human, UniProt Q13421 296-390).
T1 construct: also called Region I
T1 chain: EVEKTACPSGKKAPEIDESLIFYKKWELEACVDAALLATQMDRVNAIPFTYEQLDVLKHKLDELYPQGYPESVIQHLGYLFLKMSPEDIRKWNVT
The experiment can be described thus: ELISA on mesothelin Region I, VHH concentration not given.

The target of experiment [2] is T2, human mesothelin Region IAB (296-359) (human, UniProt Q13421 296-359).
T2 construct: also called IAB domain
T2 chain: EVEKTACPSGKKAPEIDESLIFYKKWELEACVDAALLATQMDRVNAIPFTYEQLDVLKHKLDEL
The experiment can be described thus: ELISA on mesothelin Region IAB, VHH concentration not given.

Experiment [3] addresses T3, human mesothelin Region IAB Y318A mutant (human, UniProt Q13421 296-359).
T3 chain: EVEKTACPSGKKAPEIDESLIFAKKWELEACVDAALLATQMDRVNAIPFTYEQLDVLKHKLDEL
The experiment can be described thus: ELISA on Region IAB mutant Y318A, VHH concentration not given.

B1: G8 camel single-domain (VHH) monoclonal antibody (VHH)
VHH: QVKLEESGGGSVQAGGSLRLSCTTSGYTNSYKWMGWFRQAPGQEREGVAVIYTGNDRTYYSDSVKGRFTISRDNAKNMIYLDMTRLRPEDSAVYECAIGHDGAWRYWGQGTQVTVSS
notes: Isolated from a camel VHH phage display library; also called G8 antibody; G8 anti-mesothelin VHH antibody
For the molecule B1, the binding result in experiment [1] is “binds”; in experiment [2] it was “binds”; in experiment [3], “no binding”.

B2: A101 camel single-domain (VHH) monoclonal antibody (VHH)
VHH: QVQLVESGGGTVQAGGSLKLACAASGLPRTYNVMGWFRQAPGKEREGVAIIYTTTGATYYRDSVKGRATISQDNAKKSVSLQMNSLRPEDTAIYYCVARQPNSGPWEYWGQGTQVTVSS
notes: Isolated from a camel VHH phage display library; also called A101 antibody; A101 anti-mesothelin VHH antibody
With B2, the values for the binding result in experiment [1], in experiment [2] and in experiment [3] were “binds”, “binds” and “no binding”, respectively.
